# Test results taken from publication PMC7215426.
# Key:
# [1] = molecular target: T1, C-reactive protein (CRP) (human) (UniProt P02741); experiment: SPR; settings: Ugu; SPR (ProteON XPR36) at 25 C in SB: 40 mM HEPES pH 7.5, 125 mM NaCl, 5 mM KCl, 1 mM MgCl2, 0.01% Tween 20; aptamer immobilized via 3' A20/T20 hybridized to …
# T1 sequence: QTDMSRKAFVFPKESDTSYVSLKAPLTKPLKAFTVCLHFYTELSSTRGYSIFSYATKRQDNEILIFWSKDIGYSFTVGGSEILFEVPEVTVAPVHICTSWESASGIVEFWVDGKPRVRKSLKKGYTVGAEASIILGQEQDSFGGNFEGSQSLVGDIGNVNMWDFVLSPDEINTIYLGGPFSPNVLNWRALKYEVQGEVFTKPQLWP
# [2] = molecular target: Lactate dehydrogenase-5 (LDH-5) (human) (UniProt P00338); experiment: SPR; settings: Aad; SPR (ProteON XPR36) at 25 C in SB: 40 mM HEPES pH 7.5, 125 mM NaCl, 5 mM KCl, 1 mM MgCl2, 0.01% Tween 20; aptamer immobilized via 3' A20/T20 hybridized to …
sequence,measurement,setting,value
CGCACATCAGTTTAGCTAGTTCTGCCTTAATATGGTCGGTTAAGCGCA [CRP-Ugu4-3],Kd,[1],0.0062 nM
TGCTGCTGGCTCGTGAGACGGATATCAGGTCTCCTAAGGCTGGC [LDH-Aad1-3],Kd,[2],0.235 nM
